Measured values taken from PMC3553987.
pKd: −log10 of the molar value.

Experiments:
[1] = system: U-STAT1 (unphosphorylated STAT1) (human); test: EMSA
[2] = biological target: T1, c-Myc;Max isoform (human;human) (UniProt P01106+P61244); test: TIRF-PBM; settings: 5' amino on one strand, coupled to hydrogel
[3] = biological target: T1, c-Myc;Max isoform (human;human); test: TIRF-PBM; settings: 5' amino on one strand, coupled to hydrogel; remark: listed apart in the source
[4] = system: P-STAT1 (phosphorylated STAT1) (human); test: TIRF-PBM; settings: 5' amino on one strand, coupled to hydrogel

T1 sequence (P01106 16-454, chain 1 of 2): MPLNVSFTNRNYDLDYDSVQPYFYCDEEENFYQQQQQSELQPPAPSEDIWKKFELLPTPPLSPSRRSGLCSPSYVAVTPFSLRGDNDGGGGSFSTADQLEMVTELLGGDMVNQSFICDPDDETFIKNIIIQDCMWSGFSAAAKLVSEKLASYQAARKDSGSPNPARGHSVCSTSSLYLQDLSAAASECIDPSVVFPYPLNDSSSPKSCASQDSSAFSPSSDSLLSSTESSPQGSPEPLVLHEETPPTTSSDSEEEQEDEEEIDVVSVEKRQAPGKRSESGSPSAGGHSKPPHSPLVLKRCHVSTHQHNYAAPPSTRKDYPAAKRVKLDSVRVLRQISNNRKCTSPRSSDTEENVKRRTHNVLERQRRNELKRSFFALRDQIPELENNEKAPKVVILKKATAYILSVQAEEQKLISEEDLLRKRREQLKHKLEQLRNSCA
T1 sequence (P61244 2-160, chain 2 of 2): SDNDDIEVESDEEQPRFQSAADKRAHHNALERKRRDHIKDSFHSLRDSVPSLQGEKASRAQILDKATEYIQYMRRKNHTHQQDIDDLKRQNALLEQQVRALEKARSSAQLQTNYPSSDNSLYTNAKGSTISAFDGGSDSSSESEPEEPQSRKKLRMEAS

## GAS cognate DNA (EMSA)
[1]
  binding signal (fold lower affinity than P-STAT1): > 200

## Myc/Max cognate E-box DNA (probe number not given)
[2]
  pKd: 8.44
[3]
  pKd: 9.05

## sequence 70 (optimal GAS, spacer CCG)
[4]
  pKd: 8.47
